Assay results reported in the Immune Epitope Database (IEDB).

Assays:
HLA-A*02:06 = assay: IEDB peptide-MHC binding, purified MHC/competitive/radioactivity; filed as Kd, often an IC50 or EC50 that approximates it; ≥ and ≤ were set here for values at or beyond the usual limits of such assays
HLA-A*02:01 [1] = assay: as above
HLA-A*02:17 = assay: as above
HLA-A*02:03 = assay: as above
HLA-A*32:01 = assay: as above
HLA-B*57:01 [2] = assay: as above
HLA-B*58:01 [3] = assay: as above
HLA-B*15:01 [4] = assay: as above; details: source organism: Dengue virus 2 Jamaica/1409/1983
HLA-A*01:01 = assay: IEDB peptide-MHC binding, purified MHC/direct/fluorescence; filed as Kd, often an IC50 or EC50 that approximates it; ≥ and ≤ were set here for values at or beyond the usual limits of such assays
HLA-A*69:01 [5] = assay: IEDB peptide-MHC binding, purified MHC/competitive/fluorescence; filed as Kd, often an IC50 or EC50 that approximates it; ≥ and ≤ were set here for values at or beyond the usual limits of such assays; details: source organism: Homo sapiens
HLA-B*46:01 = assay: as above; details: source organism: Homo sapiens
HLA-B*51:01 = assay: as above; details: source organism: Homo sapiens
HLA-B*27:03 = assay: as above; details: source organism: Homo sapiens
HLA-B*57:01 [6] = assay: as above; details: source organism: Homo sapiens
HLA-B*15:01 [7] = assay: as above; details: source organism: Homo sapiens
HLA-B*39:01 = assay: as above; details: source organism: Homo sapiens
HLA-A*02:01 [8] = assay: IEDB peptide-MHC binding, purified MHC/direct/fluorescence; filed as Kd, often an IC50 or EC50 that approximates it; ≥ and ≤ were set here for values at or beyond the usual limits of such assays; details: source organism: Vibrio cholerae
HLA-A*69:01 [9] = assay: as above; details: source organism: Vibrio cholerae
HLA-B*07:02 = assay: as above; details: source organism: Vibrio cholerae
HLA-B*27:05 = assay: as above; details: source organism: Vibrio cholerae
HLA-A*26:01 = assay: as above; details: source organism: Vibrio cholerae
HLA-A*03:01 = assay: as above; details: source organism: Vibrio cholerae
HLA-B*58:01 [10] = assay: as above; details: source organism: Vibrio cholerae
HLA-B*44:02 = assay: as above; details: source organism: Vibrio cholerae
HLA-B*08:01 = assay: as above; details: source organism: Vibrio cholerae
HLA-A*11:01 = assay: as above; details: source organism: Vibrio cholerae
HLA-B*40:01 = assay: as above; details: source organism: Vibrio cholerae
HLA-A*31:01 = assay: as above; details: source organism: Vibrio cholerae
HLA-B*18:01 = assay: as above
[11] = source organism: Dengue virus 2 Jamaica/1409/1983
[12] = source organism: Dengue virus 1 Brazil/97-11/1997
[13] = source organism: Dengue virus 1 Singapore/S275/1990
[14] = source organism: Dengue virus 4 Philippines/H241/1956
[15] = source organism: Dengue virus 3 Martinique/1243/1999
[16] = source organism: Dengue virus 4 Dominica/814669/1981

Q: With FLDLPLPWL as the sequence, how does the Kd (HLA-A*02:06; [11]) read?
A: Its Kd is 127 nM.

Q: What about the Kd (HLA-A*02:01 [1]; [11]) of the same sequence?
A: Its Kd is 10.3 nM.

Q: And the Kd (HLA-A*02:17; [11])?
A: Its Kd is 9.46 nM.

Q: How did the Kd (HLA-A*02:03; [12]) turn out when TMKEKSWLV was run?
A: Its Kd is 94.6 nM.

Q: What about the Kd (HLA-A*02:01 [1]; [13]) of the same sequence?
A: The Kd was 54.7 nM.

Q: And the Kd (HLA-A*02:17; [13])?
A: The Kd was 40.3 nM.

Q: With GLNTFTNMEV as the sequence, how does the Kd (HLA-A*02:03; [12]) read?
A: Its Kd is 15.3 nM.

Q: And the Kd (HLA-A*02:01 [1]; [14])?
A: The Kd was 3.82 nM.

Q: What about the Kd (HLA-A*02:17; [14]) of the same sequence?
A: Its Kd is 421 nM.

Q: How did the Kd (HLA-A*02:03; [11]) turn out when IMAVGMVSI was run?
A: The Kd was 8.29 nM.

Q: And the Kd (HLA-A*02:17; [11])?
A: Its Kd is 785 nM.

Q: What about the Kd (HLA-A*32:01; [11]) of the same sequence?
A: The Kd was 20.4 nM.

Q: Which results are given for FLAHYIGTSL?
A: Kd (HLA-A*02:03; [15]): 3.3 nM; Kd (HLA-A*02:17; source organism: Dengue virus 3 China/80-2/1980): 22.5 nM

Q: How did the Kd (HLA-B*57:01 [2]; [14]) turn out when MSSEGAWKHA was run?
A: The Kd was 134 nM.

Q: And the Kd (HLA-B*58:01 [3]; [14])?
A: Its Kd is 254 nM.

Q: Which Kd (HLA-B*57:01 [2]; [14]) does the source give for KTQRSGALW here?
A: Its Kd is 105 nM.

Q: And the Kd (HLA-B*58:01 [3]; [14])?
A: Its Kd is 6.11 nM.

Q: YQLAVTIMAI was tested. Which Kd (HLA-A*02:03; [11]) did it give?
A: The Kd was 11.2 nM.

Q: What about the Kd (HLA-A*02:06; [11]) of the same sequence?
A: The Kd was 11.3 nM.

Q: And the Kd (HLA-A*02:01 [1]; [11])?
A: Its Kd is 32.3 nM.

Q: What about the Kd (HLA-A*02:17; [11]) of the same sequence?
A: The Kd was 7840 nM.

Q: What about the Kd (HLA-B*15:01 [4]) of the same sequence?
A: The Kd was 15.8 nM.

Q: Which Kd (HLA-A*02:06; [13]) does the source give for MASSVLLWMA here?
A: The Kd was 90.6 nM.

Q: And the Kd (HLA-B*57:01 [2]; [13])?
A: The Kd was 859 nM.

Q: And the Kd (HLA-B*58:01 [3]; [13])?
A: The Kd was 223 nM.

Q: AVASGLLWV was tested. Which Kd (HLA-A*02:03; [14]) did it give?
A: Its Kd is 1.89 nM.

Q: And the Kd (HLA-A*02:06; [14])?
A: The Kd was 11.7 nM.

Q: What about the Kd (HLA-A*02:01 [1]; [14]) of the same sequence?
A: Its Kd is 18.9 nM.

Q: And the Kd (HLA-A*02:17; [14])?
A: Its Kd is 3300 nM.

Q: Which results are given for NTAINFFLY?
A: Kd (HLA-A*01:01; source organism: Homo sapiens): 3.6 nM; Kd (HLA-A*69:01 [5]): ≥ 20000 nM; Kd (HLA-B*46:01): ≥ 20000 nM; Kd (HLA-B*51:01): ≥ 20000 nM; Kd (HLA-B*27:03): ≥ 20000 nM; Kd (HLA-B*57:01 [6]): ≥ 20000 nM; Kd (HLA-B*15:01 [7]): ≥ 20000 nM; Kd (HLA-B*39:01): ≥ 20000 nM

Q: What does the source list for IHYAGWVSL?
A: Kd (HLA-A*02:01 [8]): ≥ 20000 nM; Kd (HLA-A*69:01 [9]): ≥ 20000 nM; Kd (HLA-B*07:02): 323 nM; Kd (HLA-B*27:05): ≥ 20000 nM; Kd (HLA-A*26:01): ≥ 20000 nM; Kd (HLA-A*03:01): ≥ 20000 nM; Kd (HLA-B*58:01 [10]): ≥ 20000 nM; Kd (HLA-B*44:02): ≥ 20000 nM; Kd (HLA-B*08:01): ≥ 20000 nM; Kd (HLA-A*11:01): ≥ 20000 nM; Kd (HLA-B*40:01): ≥ 20000 nM; Kd (HLA-A*31:01): ≥ 20000 nM; Kd (HLA-A*01:01; source organism: Vibrio cholerae): ≥ 20000 nM

Q: For SSSNPTIEEG, which Kd (HLA-B*58:01 [3]; [14]) is on record?
A: The Kd was 5990 nM.

Q: KSWLVHKQW was tested. Which Kd (HLA-B*57:01 [2]; [12]) did it give?
A: The Kd was 5.87 nM.

Q: And the Kd (HLA-A*32:01; [12])?
A: Its Kd is 16.9 nM.

Q: And the Kd (HLA-B*58:01 [3]; [12])?
A: The Kd was 3.03 nM.

Q: For RVMGITAEW, which Kd (HLA-B*57:01 [2]; [15]) is on record?
A: The Kd was 2.97 nM.

Q: What about the Kd (HLA-A*32:01; [15]) of the same sequence?
A: The Kd was 35.9 nM.

Q: And the Kd (HLA-B*58:01 [3]; [15])?
A: The Kd was 0.824 nM.

Q: Which results are given for KTQAIDGEF?
A: Kd (HLA-A*32:01; [16]): 640 nM; Kd (HLA-B*58:01 [3]; [16]): 287 nM

Q: How did the Kd (HLA-B*58:01 [3]; [11]) turn out when ERSWNSGHEW was run?
A: Its Kd is 135 nM.

Q: With SESLPIWGI as the sequence, how does the Kd (HLA-B*18:01; source organism: Cryptosporidium parvum Iowa II) read?
A: Its Kd is 13700 nM.

Q: How did the Kd (HLA-B*18:01; source organism: Yellow fever virus) turn out when VQGFIFFFL was run?
A: The Kd was ≥ 5000 nM.
